# Source: paper PMC6509496, “Crystal structure of the TreS:Pep2 complex, initiating α-glucan synthesis in the GlgE pathway of mycobacteria” (The Journal of Biological Chemistry, 2019)
# T1: Mycobacterium smegmatis trehalose synthase (TreS) (M. smegmatis, UniProt A0R6E0 1-593)
# T1 construct: Trehalose synthase TreS of M. smegmatis (MSMEG_6515), cloned from genomic DNA with primers from the start codon to the stop codon; concentrations in the ITC count on the monomer; also called Msm TreS; MsTreS; source: E. coli BL21 (DE3), purified (Ni-NTA, HiTrap Q, Sephacryl S-300HR)
# T1 sequence (looked up): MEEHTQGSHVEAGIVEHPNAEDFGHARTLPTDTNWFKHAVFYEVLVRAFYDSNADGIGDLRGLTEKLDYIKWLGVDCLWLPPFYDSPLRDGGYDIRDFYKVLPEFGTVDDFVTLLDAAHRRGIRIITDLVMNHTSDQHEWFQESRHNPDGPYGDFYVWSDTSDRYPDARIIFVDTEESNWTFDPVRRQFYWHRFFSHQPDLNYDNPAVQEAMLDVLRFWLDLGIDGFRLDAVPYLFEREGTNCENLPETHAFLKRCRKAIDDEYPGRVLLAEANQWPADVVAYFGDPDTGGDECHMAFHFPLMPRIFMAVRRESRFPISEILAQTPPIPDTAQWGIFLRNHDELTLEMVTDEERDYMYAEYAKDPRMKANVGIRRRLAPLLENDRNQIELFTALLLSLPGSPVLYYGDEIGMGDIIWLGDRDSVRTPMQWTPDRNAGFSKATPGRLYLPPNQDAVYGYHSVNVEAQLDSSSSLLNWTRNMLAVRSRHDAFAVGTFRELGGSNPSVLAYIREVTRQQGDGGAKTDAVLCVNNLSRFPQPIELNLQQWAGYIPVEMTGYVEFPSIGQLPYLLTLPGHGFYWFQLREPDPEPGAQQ
# B1: Mycobacterium smegmatis maltokinase (Pep2) (enzyme)
# chain: not shown
# notes: Maltokinase Pep2 of M. smegmatis, locus MSMEG_6514, 441 residues, cloned from genomic DNA into NdeI/HindIII of pET28a; the printed primers run from the start codon to the stop codon; Monomer by size exclusion; calculated mass 48,800 Da; also called Msm Pep2; MsPep2; source: E. coli BL21 (DE3), purified (Ni-NTA, HiTrap Q, Sephacryl S-300HR)
# B2: Mycobacterium tuberculosis trehalose synthase (TreS), wild type (enzyme)
# chain: MNEAEHSVEHPPVQGSHVEGGVVEHPDAKDFGSAAALPADPTWFKHAVFYEVLVRAFFDASADGSGDLRGLIDRLDYLQWLGIDCIWLPPFYDSPLRDGGYDIRDFYKVLPEFGTVDDFVALVDAAHRRGIRIITDLVMNHTSESHPWFQESRRDPDGPYGDYYVWSDTSERYTDARIIFVDTEESNWSFDPVRRQFYWHRFFSHQPDLNYDNPAVQEAMIDVIRFWLGLGIDGFRLDAVPYLFEREGTNCENLPETHAFLKRVRKVVDDEFPGRVLLAEANQWPGDVVEYFGDPNTGGDECHMAFHFPLMPRIFMAVRRESRFPISEIIAQTPPIPDMAQWGIFLRNHDELTLEMVTDEERDYMYAEYAKDPRMKANVGIRRRLAPLLDNDRNQIELFTALLLSLPGSPVLYYGDEIGMGDVIWLGDRDGVRIPMQWTPDRNAGFSTANPGRLYLPPSQDPVYGYQAVNVEAQRDTSTSLLNFTRTMLAVRRRHPAFAVGAFQELGGSNPSVLAYVRQVAGDDGDTVLCVNNLSRFPQPIELDLQQWTNYTPVELTGHVEFPRIGQVPYLLTLPGHGFYWFQLTTHEVGAPPTCGGERRL
# notes: also called Mtb TreS; WT Mtb TreS
# B3: Mycobacterium smegmatis trehalose synthase (TreS) (enzyme, M. smegmatis, UniProt A0R6E0 1-593, looked up)
# chain: MEEHTQGSHVEAGIVEHPNAEDFGHARTLPTDTNWFKHAVFYEVLVRAFYDSNADGIGDLRGLTEKLDYIKWLGVDCLWLPPFYDSPLRDGGYDIRDFYKVLPEFGTVDDFVTLLDAAHRRGIRIITDLVMNHTSDQHEWFQESRHNPDGPYGDFYVWSDTSDRYPDARIIFVDTEESNWTFDPVRRQFYWHRFFSHQPDLNYDNPAVQEAMLDVLRFWLDLGIDGFRLDAVPYLFEREGTNCENLPETHAFLKRCRKAIDDEYPGRVLLAEANQWPADVVAYFGDPDTGGDECHMAFHFPLMPRIFMAVRRESRFPISEILAQTPPIPDTAQWGIFLRNHDELTLEMVTDEERDYMYAEYAKDPRMKANVGIRRRLAPLLENDRNQIELFTALLLSLPGSPVLYYGDEIGMGDIIWLGDRDSVRTPMQWTPDRNAGFSKATPGRLYLPPNQDAVYGYHSVNVEAQLDSSSSLLNWTRNMLAVRSRHDAFAVGTFRELGGSNPSVLAYIREVTRQQGDGGAKTDAVLCVNNLSRFPQPIELNLQQWAGYIPVEMTGYVEFPSIGQLPYLLTLPGHGFYWFQLREPDPEPGAQQ
# notes: Trehalose synthase TreS of M. smegmatis, locus MSMEG_6515, cloned from genomic DNA into NdeI/HindIII of pET28a; the printed primers run from the start codon to the stop codon; calculated tetramer mass 272,000 Da; also called Msm TreS; MSMEG_6515; source: E. coli BL21 (DE3), purified (Ni-NTA, HiTrap Q, Sephacryl S-300HR)
# B4: Mycobacterium smegmatis maltokinase (Pep2) (enzyme)
# chain: not shown
# notes: Maltokinase Pep2 of M. smegmatis (MSMEG_6514); 441 residues; cloned with primers from the start codon to the stop codon; also called Msm Pep2; MsPep2; source: E. coli BL21 (DE3), purified (Ni-NTA, HiTrap Q, Sephacryl S-300HR)
# B5: N-terminally truncated M. smegmatis Pep2 (Pep2-Δ70) (domain or fragment)
# chain: not shown
# notes: Maltokinase Pep2 of M. smegmatis (MSMEG_6514) with a 70-amino acid N-terminal truncation; the whole protein has 441 residues; The first residue 71 follows from the stated 70-residue truncation; also called Msm Pep2-Δ70; source: E. coli BL21 (DE3), purified (as WT Pep2, NaCl 300 mM before ion exchange)
# Tests used:
# [1] = biological target: B3; experiment: ITC; Pep2 (500 μM in the syringe) titrated into TreS (75 μM monomer); 50 mM sodium phosphate pH 6.5, 300 mM NaCl, 10% glycerol, 25 °C; details: both partners purified
# [2] = biological target: B3; experiment: ITC; Pep2 (500 μM in the syringe) titrated into TreS (75 μM monomer); 50 mM sodium phosphate pH 7.5, 300 mM NaCl, 10% glycerol, 25 °C; details: both partners purified
# [3] = biological target: B3; experiment: ITC; Pep2 (500 μM in the syringe) titrated into TreS (75 μM monomer); 50 mM sodium phosphate pH 8.5, 300 mM NaCl, 10% glycerol, 25 °C; details: both partners purified
# [4] = biological target: B3; experiment: crystal structure; vapor diffusion of mixtures of M. smegmatis TreS and Pep2 at molar ratios 1:1 to 1:2; 9-10% PEG 8000, 4% glycerol, 200 mM MgCl2, 0.1 M Tris-HCl pH 6.7-7.0; 3.6 Å; details: both partners purified
# [5] = biological target: B3; experiment: AUC; sedimentation equilibrium, 50 mM sodium phosphate pH 6.5, 300 mM NaCl, 10% glycerol, 4 °C; 8000, 9000, 10,000 rpm; TreS alone at 6, 4, 2 μM, 1:1 mixture at 3.75, 2.5, 1.25 μM; single-species model; details: both partners purified
# [6] = biological target: T2, Mycobacterium tuberculosis maltokinase (Pep2) (M. tuberculosis, UniProt O07177); experiment: SEC; details: both partners purified
# T2 construct: also called Mtb Pep2; MtPep2
# SEC = biological target: the molecule itself; experiment: SEC
# [7] = biological target: the molecule itself; experiment: AUC; sedimentation equilibrium, 50 mM sodium phosphate pH 6.5, 300 mM NaCl, 10% glycerol, 4 °C; 8000, 9000, 10,000 rpm; TreS alone at 6, 4, 2 μM, 1:1 mixture at 3.75, 2.5, 1.25 μM; single-species model
# [8] = biological target: T1, Mycobacterium smegmatis trehalose …; experiment: ITC; Pep2 titrated to 75 uM TreS in the sample chamber, up to a molar ratio [Pep2]/[TreS] of about 1.5; pH 6.5; 200 mM NaCl; 298 K; details: both partners purified
# [9] = biological target: T1, Mycobacterium smegmatis trehalose …; experiment: ITC; Pep2 titrated to 75 uM TreS in the sample chamber, up to a molar ratio [Pep2]/[TreS] of about 1.5; pH 6.5; 300 mM NaCl; 298 K; details: both partners purified
# [10] = biological target: T1, Mycobacterium smegmatis trehalose …; experiment: ITC; Pep2 titrated to 75 uM TreS in the sample chamber, up to a molar ratio [Pep2]/[TreS] of about 1.5; pH 6.5; 400 mM NaCl; 298 K; details: both partners purified
# [11] = biological target: B3; experiment: ITC; Pep2 (500 μM in the syringe) titrated into TreS (75 μM monomer); 50 mM sodium phosphate pH 6.5, 300 mM NaCl, 10% glycerol, 25 °C; details: both partners purified; remark: listed apart in the source
binder,measurement,setting,value
B1,Ka,[1],287000 M⁻¹
same,Kd,[1],3.48 µM
same,dH,[1],-31.3 kcal/mol
same,stoichiometry N,[1],0.574 ± 0.007
same,Ka,[2],160000 M⁻¹
same,Kd,[2],6.25 µM
same,dH,[2],-18.7 kcal/mol
same,stoichiometry N,[2],0.459 ± 0.008
same,Ka,[3],28700 M⁻¹
same,Kd,[3],34.8 µM
same,dH,[3],-22.3 kcal/mol
same,stoichiometry N,[3],0.22 ± 0.04
same,stoichiometry N,[4],1 Pep2 per TreS protomer
same,stoichiometry N,[5],2 copies of Pep2 per TreS tetramer
B2,binding result,[6],binds
same,stoichiometry N,SEC,4
B3,stoichiometry N,[7],4
B4,Ka,[8],210000 M⁻¹
same,Kd,[8],4.8 µM
same,stoichiometry N,[8],0.79 ± 0.015
same,Ka,[9],222000 M⁻¹
same,Kd,[9],4.5 µM
same,stoichiometry N,[9],0.54 ± 0.01
same,Ka,[10],210000 M⁻¹
same,Kd,[10],4.8 µM
same,stoichiometry N,[10],0.58 ± 0.01
B5,Kd,[11],28.6 µM
same,Ka,[1],35000 M⁻¹
same,Kd,[1],26.8 µM
same,dH,[1],-17.9 kcal/mol
same,stoichiometry N,[1],0.681 ± 0.004
